Source: article PMC9482650, “Quantitative fragmentomics allow affinity mapping of interactomes” (Nature Communications, 2022)

T1: APBA3_1, O96018
T1 sequence (O96018 389-490, limits assumed, looked up): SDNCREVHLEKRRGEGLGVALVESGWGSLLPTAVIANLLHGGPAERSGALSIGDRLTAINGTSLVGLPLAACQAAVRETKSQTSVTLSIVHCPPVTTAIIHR

T2: MPP6, Q9NZW5
T2 sequence (Q9NZW5 125-219, limits assumed, looked up): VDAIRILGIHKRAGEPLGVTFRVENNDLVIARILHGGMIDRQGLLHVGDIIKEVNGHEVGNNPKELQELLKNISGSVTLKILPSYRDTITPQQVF

T3: PARD3B_1, Q8TEW8
T3 sequence (Q8TEW8 196-299, limits assumed, looked up): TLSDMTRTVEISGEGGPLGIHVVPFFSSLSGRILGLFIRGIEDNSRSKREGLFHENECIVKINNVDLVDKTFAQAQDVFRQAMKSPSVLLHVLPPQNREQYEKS

T4: MPDZ_10, O75970
T4 sequence (O75970 1624-1722, limits assumed, looked up): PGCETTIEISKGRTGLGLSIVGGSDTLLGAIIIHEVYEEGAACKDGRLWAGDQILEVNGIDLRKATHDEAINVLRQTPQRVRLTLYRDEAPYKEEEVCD

T5: DLG3_3, Q92796
T5 sequence (Q92796 374-475, limits assumed, looked up): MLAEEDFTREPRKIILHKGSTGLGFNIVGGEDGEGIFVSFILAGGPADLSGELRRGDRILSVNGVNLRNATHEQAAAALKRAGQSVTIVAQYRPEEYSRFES

T6: SNTG2, Q9NY99
T6 sequence (Q9NY99 68-166, limits assumed, looked up): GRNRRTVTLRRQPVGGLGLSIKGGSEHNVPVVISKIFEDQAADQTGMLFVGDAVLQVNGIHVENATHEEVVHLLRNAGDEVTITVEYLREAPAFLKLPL

T7: SYNJ2BP, P57105
T7 sequence (P57105 8-110, limits assumed, looked up): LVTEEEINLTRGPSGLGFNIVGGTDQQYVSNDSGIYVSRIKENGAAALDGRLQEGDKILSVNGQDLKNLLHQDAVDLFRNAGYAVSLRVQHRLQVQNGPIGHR

T8: LIN7B, Q9HAP6
T8 sequence (Q9HAP6 88-185, limits assumed, looked up): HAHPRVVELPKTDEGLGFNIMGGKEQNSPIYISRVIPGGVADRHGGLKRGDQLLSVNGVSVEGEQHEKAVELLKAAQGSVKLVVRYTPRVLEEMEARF

T9: RADIL, Q96JH8
T9 sequence (Q96JH8 971-1071, limits assumed, looked up): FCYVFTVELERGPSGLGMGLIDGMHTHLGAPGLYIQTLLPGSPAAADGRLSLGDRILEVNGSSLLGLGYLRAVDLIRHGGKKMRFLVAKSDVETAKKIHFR

T10: LRRC7, Q96NW7
T10 sequence (Q96NW7 1440-1537, limits assumed, looked up): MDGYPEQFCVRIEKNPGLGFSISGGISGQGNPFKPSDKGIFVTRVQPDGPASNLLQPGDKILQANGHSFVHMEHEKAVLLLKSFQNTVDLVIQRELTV


Assays:
Assay in all cases: holdup assay
Design in all cases: key: below the threshold = too weak to quantify, mostly under pKd 3.1 to 4
Conditions in all cases: plain residues with an end cap or a label only (N-terminal biotin on a linker: ado-ado)
APBA3_1, O96018 = target: T1, APBA3_1, O96018
SNX27, Q96L92 = target: SNX27, Q96L92
MPP6, Q9NZW5 = target: T2, MPP6, Q9NZW5
DLG5_1, Q8TDM6 = target: DLG5_1, Q8TDM6
Sequence of DLG5_1, Q8TDM6 (Q8TDM6 617-713): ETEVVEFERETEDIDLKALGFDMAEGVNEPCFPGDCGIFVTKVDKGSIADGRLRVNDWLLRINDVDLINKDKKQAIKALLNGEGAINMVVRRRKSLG

DLG4_3, P78352 = target: DLG4_3, P78352
Sequence of DLG4_3, P78352 (P78352 306-403): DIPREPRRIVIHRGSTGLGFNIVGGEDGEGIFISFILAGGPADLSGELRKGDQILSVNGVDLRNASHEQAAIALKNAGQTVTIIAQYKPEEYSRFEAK

PARD3B_1, Q8TEW8 = target: T3, PARD3B_1, Q8TEW8
MPDZ_10, O75970 = target: T4, MPDZ_10, O75970
FRMPD3, Q5JV73 = target: FRMPD3, Q5JV73
Sequence of FRMPD3, Q5JV73 (Q5JV73 12-100): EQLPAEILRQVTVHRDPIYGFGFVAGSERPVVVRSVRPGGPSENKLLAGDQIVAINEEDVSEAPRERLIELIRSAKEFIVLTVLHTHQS

AHNAK1, Q09666 = target: AHNAK1, Q09666
Sequence of AHNAK1, Q09666 (Q09666 4-100): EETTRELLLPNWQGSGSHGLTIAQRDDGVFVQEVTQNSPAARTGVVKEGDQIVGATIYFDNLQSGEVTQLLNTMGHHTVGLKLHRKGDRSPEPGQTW

GRASP, Q7Z6J2 = target: GRASP, Q7Z6J2
Sequence of GRASP, Q7Z6J2 (Q7Z6J2 96-193): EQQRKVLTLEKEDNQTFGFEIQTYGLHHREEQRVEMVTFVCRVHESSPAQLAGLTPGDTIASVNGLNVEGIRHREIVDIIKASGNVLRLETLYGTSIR

Inadl_6, Q8NI35 = target: Inadl_6, Q8NI35
Sequence of Inadl_6, Q8NI35 (Q8NI35 1058-1167): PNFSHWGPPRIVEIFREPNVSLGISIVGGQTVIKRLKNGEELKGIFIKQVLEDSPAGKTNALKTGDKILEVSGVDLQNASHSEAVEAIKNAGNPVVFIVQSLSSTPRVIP

DLG3_3, Q92796 = target: T5, DLG3_3, Q92796
SNTG2, Q9NY99 = target: T6, SNTG2, Q9NY99
SYNJ2BP, P57105 = target: T7, SYNJ2BP, P57105
DLG1_3, Q12959 = target: DLG1_3, Q12959
Sequence of DLG1_3, Q12959 (Q12959 457-571): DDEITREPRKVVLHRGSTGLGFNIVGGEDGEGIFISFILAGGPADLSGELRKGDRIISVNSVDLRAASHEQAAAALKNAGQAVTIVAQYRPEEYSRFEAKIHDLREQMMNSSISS

TJP2_1, Q9UDY2 = target: TJP2_1, Q9UDY2
Sequence of TJP2_1, Q9UDY2 (Q9UDY2 24-128): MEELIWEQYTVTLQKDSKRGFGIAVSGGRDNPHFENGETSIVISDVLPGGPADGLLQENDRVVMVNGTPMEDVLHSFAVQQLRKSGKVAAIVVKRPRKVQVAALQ

NHERF2_2, Q15599 = target: NHERF2_2, Q15599
Sequence of NHERF2_2, Q15599 (Q15599 142-238): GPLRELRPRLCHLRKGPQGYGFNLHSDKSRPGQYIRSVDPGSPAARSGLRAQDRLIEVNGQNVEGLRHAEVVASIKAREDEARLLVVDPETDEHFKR

Inadl_9, Q8NI35 = target: Inadl_9, Q8NI35
Sequence of Inadl_9, Q8NI35 (Q8NI35 1530-1615): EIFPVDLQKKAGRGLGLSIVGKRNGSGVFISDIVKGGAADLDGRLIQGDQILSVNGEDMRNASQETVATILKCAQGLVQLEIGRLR

IL16_4, Q14005 = target: IL16_4, Q14005
Sequence of IL16_4, Q14005 (Q14005 1229-1329): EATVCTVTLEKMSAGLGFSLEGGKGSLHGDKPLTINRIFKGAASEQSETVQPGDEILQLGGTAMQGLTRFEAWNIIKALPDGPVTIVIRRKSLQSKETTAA

Inadl_2, Q8NI35 = target: Inadl_2, Q8NI35
Sequence of Inadl_2, Q8NI35 (Q8NI35 238-335): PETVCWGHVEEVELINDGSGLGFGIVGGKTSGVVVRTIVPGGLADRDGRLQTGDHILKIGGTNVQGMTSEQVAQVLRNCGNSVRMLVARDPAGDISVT

LIN7B, Q9HAP6 = target: T8, LIN7B, Q9HAP6
MAST1, Q9Y2H9 = target: MAST1, Q9Y2H9
Sequence of MAST1, Q9Y2H9 (Q9Y2H9 962-1065): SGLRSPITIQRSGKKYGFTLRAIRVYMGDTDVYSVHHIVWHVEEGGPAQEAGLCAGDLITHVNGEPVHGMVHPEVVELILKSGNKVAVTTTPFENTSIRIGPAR

PARD3_3, Q8TEW0 = target: PARD3_3, Q8TEW0
Sequence of PARD3_3, Q8TEW0 (Q8TEW0 582-685): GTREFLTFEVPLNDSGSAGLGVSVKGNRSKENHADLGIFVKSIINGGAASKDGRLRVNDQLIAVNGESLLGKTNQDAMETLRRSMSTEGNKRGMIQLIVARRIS

NOS1, P29475 = target: NOS1, P29475
Sequence of NOS1, P29475 (P29475 9-101): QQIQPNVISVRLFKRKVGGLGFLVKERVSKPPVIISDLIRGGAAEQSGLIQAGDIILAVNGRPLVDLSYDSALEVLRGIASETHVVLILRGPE

RADIL, Q96JH8 = target: T9, RADIL, Q96JH8
NHERF4_1, Q86UT5-2 = target: NHERF4_1, Q86UT5-2
Sequence of NHERF4_1, Q86UT5-2 (Q86UT5 other isoform, or with tags, fused parts or gaps): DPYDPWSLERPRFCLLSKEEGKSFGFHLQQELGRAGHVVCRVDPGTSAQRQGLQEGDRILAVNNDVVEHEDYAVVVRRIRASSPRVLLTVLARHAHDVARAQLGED

LRRC7, Q96NW7 = target: T10, LRRC7, Q96NW7
MAGI1_2, Q96QZ7 = target: MAGI1_2, Q96QZ7
Sequence of MAGI1_2, Q96QZ7 (Q96QZ7 456-580): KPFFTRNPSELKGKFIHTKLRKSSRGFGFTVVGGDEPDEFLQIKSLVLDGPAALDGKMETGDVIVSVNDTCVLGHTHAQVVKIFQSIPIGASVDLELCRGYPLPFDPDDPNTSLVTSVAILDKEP

Binder	pKd (APBA3_1, O96018)	pKd (SNX27, Q96L92)	pKd (MPP6, Q9NZW5)	pKd (DLG5_1, Q8TDM6)	pKd (DLG4_3, P78352)	pKd (PARD3B_1, Q8TEW8)	pKd (MPDZ_10, O75970)	pKd (FRMPD3, Q5JV73)	pKd (AHNAK1, Q09666)	pKd (GRASP, Q7Z6J2)	pKd (Inadl_6, Q8NI35)	pKd (DLG3_3, Q92796)	pKd (SNTG2, Q9NY99)	pKd (SYNJ2BP, P57105)	pKd (DLG1_3, Q12959)	pKd (TJP2_1, Q9UDY2)	pKd (NHERF2_2, Q15599)	pKd (Inadl_9, Q8NI35)	pKd (IL16_4, Q14005)	pKd (Inadl_2, Q8NI35)	further results
GTGYDRKDYV [CLDN3, O15551]	below the threshold	3.68	below the threshold	3.59	below the threshold	3.51	3.51	below the threshold	below the threshold	below the threshold	below the threshold	3.64	below the threshold	below the threshold	3.67	3.94	3.6	3.93	3.73	below the threshold	pKd (LIN7B, Q9HAP6): below the threshold; pKd (MAST1, Q9Y2H9): 4.03; pKd (PARD3_3, Q8TEW0): 3.52; pKd (NOS1, P29475): 4.45; pKd (RADIL, Q96JH8): 4.12; pKd (NHERF4_1, Q86UT5-2): 3.66; pKd (LRRC7, Q96NW7): below the threshold; pKd (MAGI1_2, Q96QZ7): below the threshold
RSSGGDDFWF [KCNV1, Q6PIU1]	below the threshold	4.15	below the threshold	below the threshold	below the threshold	4.48	below the threshold	4.82	below the threshold	below the threshold	below the threshold	below the threshold	below the threshold	below the threshold	3.57	below the threshold	4.69	below the threshold	below the threshold	4.28	pKd (LIN7B, Q9HAP6): 3.7; pKd (MAST1, Q9Y2H9): 4.01; pKd (PARD3_3, Q8TEW0): 4.97; pKd (NOS1, P29475): below the threshold; pKd (RADIL, Q96JH8): below the threshold; pKd (NHERF4_1, Q86UT5-2): below the threshold; pKd (LRRC7, Q96NW7): below the threshold; pKd (MAGI1_2, Q96QZ7): below the threshold
